Here are results for 22 molecules from patent publication US20220227830A1, “QD DOSING OF GIP RECEPTOR AGONIST PEPTIDE COMPOUNDS AND USES THEREOF” (Takeda Pharmaceutical Company Limited, priority 2020, published 2022).

Experiment [1] deals with T1, full-length human GIPR with an N-terminal FLAG tag (human, UniProt P48546 22-466).
T1 sequence (looked up): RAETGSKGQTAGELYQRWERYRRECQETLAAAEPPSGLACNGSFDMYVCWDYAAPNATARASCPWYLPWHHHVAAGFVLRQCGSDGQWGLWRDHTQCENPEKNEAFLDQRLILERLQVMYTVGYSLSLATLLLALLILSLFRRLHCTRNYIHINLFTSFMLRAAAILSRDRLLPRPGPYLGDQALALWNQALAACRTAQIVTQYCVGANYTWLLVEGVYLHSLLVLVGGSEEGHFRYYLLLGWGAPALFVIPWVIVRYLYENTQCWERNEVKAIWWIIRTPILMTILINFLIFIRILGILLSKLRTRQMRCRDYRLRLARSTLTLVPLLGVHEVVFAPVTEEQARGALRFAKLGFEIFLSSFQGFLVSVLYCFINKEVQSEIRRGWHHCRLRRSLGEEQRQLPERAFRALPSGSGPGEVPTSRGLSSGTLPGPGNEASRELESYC
The experiment is described as follows: cell-based or functional assay.

For experiment [2], the target named is full-length human GLP-1R with an N-terminal FLAG tag (human, UniProt P43220 24-463). Description: cell-based or functional assay.

Starred links: 1 amine or outer side, 2 acyl side, 3 side chain; linkers in the order of their positions; H or OH if unused. Non-standard residues stand in square brackets, D forms with d. Groups on a side chain read outwards from the residue. No end group written: not given here. *: point of attachment. 2OEGgEgE‑C15DA = 2OEGgEgE-C15 diacid linker-lipid on the Lys side chain, O=C(O)CCCCCCCCCCCCCC(=O)N[C@@H](CCC(=O)N[C@@H](CCC(=O)NCCOCCOCC(=O)NCCOCCOCC(=O)*)C(=O)O)C(=O)O; 2OEGgE‑C16DA = O=C(O)CCCCCCCCCCCCCCC(=O)N[C@@H](CCC(=O)NCCOCCOCC(=O)NCCOCCOCC(=O)*)C(=O)O; G2E3 = linker of 2 Gly and 3 Glu (read GGEEE); C15 diacid = O=C(O)CCCCCCCCCCCCCC(=O)*; γGlu = O=C(O)[C@H](CCC(=O)[*:2])N[*:1]; NMeY = CN[C@@H](Cc1ccc(O)cc1)C(=O)O; AEEA = NCCOCCOCC(=O)O; Aib = CC(C)(N)C(=O)O

B1: Compound 25 (peptide)
peptide: [NMeY][Aib]EGTFISDYSIALDR[Aib]AQ[Aib]K([AEEA-AEEA-γGlu-γGlu-C15 diacid])FVNWLLAQKG-OH
modifications: N-terminus assumed
SMILES: CC[C@H](C)[C@H](NC(=O)[C@H](CO)NC(=O)[C@H](Cc1ccc(O)cc1)NC(=O)[C@H](CC(=O)O)NC(=O)[C@H](CO)NC(=O)[C@@H](NC(=O)[C@H](Cc1ccccc1)NC(=O)[C@@H](NC(=O)CNC(=O)[C@H](CCC(=O)O)NC(=O)C(C)(C)NC(=O)[C@H](Cc1ccc(O)cc1)NC)[C@@H](C)O)[C@@H](C)CC)C(=O)N[C@@H](C)C(=O)N[C@@H](CC(C)C)C(=O)N[C@@H](CC(=O)O)C(=O)N[C@@H](CCCNC(=N)N)C(=O)NC(C)(C)C(=O)N[C@@H](C)C(=O)N[C@@H](CCC(N)=O)C(=O)NC(C)(C)C(=O)N[C@@H](CCCCNC(=O)COCCOCCNC(=O)COCCOCCNC(=O)CC[C@H](NC(=O)CC[C@H](NC(=O)CCCCCCCCCCCCCC(=O)O)C(=O)O)C(=O)O)C(=O)N[C@@H](Cc1ccccc1)C(=O)N[C@H](C(=O)N[C@@H](CC(N)=O)C(=O)N[C@@H](Cc1c[nH]c2ccccc12)C(=O)N[C@@H](CC(C)C)C(=O)N[C@@H](CC(C)C)C(=O)N[C@@H](C)C(=O)N[C@@H](CCC(N)=O)C(=O)N[C@@H](CCCCN)C(=O)NCC(=O)O)C(C)C
In the case of B1, the “Human GIPR cAMP, HEK293T EC50” value in experiment [1] stood at 0.0005 nM.

B2: Compound 148 (peptide)
peptide: Me-Y[Aib]EGTFISDYSIALDR[Aib]AQ[Aib]KFVNWLLAQKG-OH
modifications: not fully specified (residues 1, 21)
Consider B2, for which the “Human GIPR cAMP, HEK293T EC50” value in experiment [1] was 0.0011 nM.

B3: Compound 142 (peptide)
peptide: YXEGTFISDYSIXXDRXAQXDFVNWLLAQRG
modifications: Me-Tyr1; Aib 2,13,17,20; Km14 = Lys(GGGGG-C15 diacid) (Table 3 prints the linker 'GS'); C-term OH
As to B3, in experiment [1], the “Human GIPR cAMP, HEK293T EC50” value came to 0.0001 nM.

B4: Compound 143 (peptide)
peptide: Me-Y[Aib]EGTFISDYSIALDR[Aib]AQ[Aib]KFVNWLLAQKG-OH
modifications: not fully specified (residues 1, 21)
Take B4: the “Human GIPR cAMP, HEK293T EC50” value in experiment [1] was determined as 0.0004 nM.

B5: Compound 21 (peptide)
peptide: Me-Y[Aib]EGTFISDYSI[Aib]LDR[Aib]AQ[Aib]NFVNWLLAQK([2OEG-γGlu-γGlu-C15 diacid])PSSGAPPPS-NH2
Regarding B5, in experiment [1], the “Human GIPR cAMP, HEK293T EC50” value is 0.0003 nM.

B6: Compound 19 (peptide)
peptide: Me-Y[Aib]EGTFISDYSI[Aib]K([AEEA-AEEA-γGlu-γGlu-C15 diacid])DR[Aib]AQ[Aib]NFVNWLLAQRPSSGAPPPS-NH2
With B6, the “Human GIPR cAMP, HEK293T EC50” value in experiment [1] amounted to 0.0004 nM.

B7: Compound 120 (peptide)
peptide: [NMeY][Aib]EGTFISDYSI[Aib]KDR[Aib]AQ[Aib]NFVNWLLAQRPSSGAPPPS-NH2
modifications: not fully specified (residue 14)
Regarding B7, the “Human GIPR cAMP, HEK293T EC50” value in experiment [1] was determined as 0.0004 nM.

B8: Compound 50 (peptide)
peptide: Y[Aib]EGTFISDYSIAKDR[Aib]AQ[Aib]NFVNWLLAQRPSSGAPPPS-OH
modifications: not fully specified (residues 1, 14); also: Me-Tyr methyl position not given here
For B8, in experiment [1], the “Human GIPR cAMP, HEK293T EC50” value is 0.0004 nM.

B9: Compound 79 (peptide)
peptide: [NMeY][Aib]EGTFISDYSIAK([G5-γGlu-C15 diacid])DR[Aib]AQ[Aib]DFVNWLLAQSPSSGAPPPS-NH2
For the molecule B9, the “Human GIPR cAMP, HEK293T EC50” value in experiment [1] came to 0.0002 nM.

B10: Compound 1 (peptide)
peptide: [NMeY][Aib]EGTFISDYSIAK(2OEGgE‑C16DA)DR[Aib]AQQNFVNWLLAQK
With B10, in experiment [2], the “Human GLP1R cAMP HEK293T EC50” value stood at 871 nM.

B11: Compound 35 (peptide)
peptide: [NMeY][Aib]EGTFISDYSIALDK[Aib]AQ[Aib]NFVNWLLAK([AEEA-AEEA-γGlu-C15 diacid])S-OH
modifications: not fully specified
Consider B11, for which the “Human GIPR cAMP, HEK293T EC50” value in experiment [1] came out at 0.0003 nM.

B12: Compound 113 (peptide)
peptide: [NMeY][Aib]EGTFISDYSI[Aib]LDR[Aib]AQ[Aib]K([Gly-Gly-Glu-Glu-Glu-C15 diacid])FVNWLLAQK-NH2
For the molecule B12, in experiment [1], the “Human GIPR cAMP, HEK293T EC50” value amounted to 0.0004 nM.

B13: Compound 2 (peptide)
peptide: [NMeY][Aib]EGTFISDYSIAKDR[Aib]AQQNFVNWLLAQK
modifications: not fully specified (residue 14, N-terminus)
On to B13, for which, in experiment [2], the “Human GLP1R cAMP HEK293T EC50” value stood at 1000 nM.

B14: Compound 144 (peptide)
peptide: Me-Y[Aib]EGTFISDYSIALDR[Aib]KQ[Aib]NFVNWLLAQSPSSGAPPPS-NH2
modifications: not fully specified (residues 1, 18)
For B14, the “Human GIPR cAMP, HEK293T EC50” value in experiment [1] amounted to 0.0001 nM.

B15: Compound 59 (peptide)
peptide: Y[Aib]EGTFISDYSI[Aib]KDR[Aib]AQ[Aib]NFVNWLLAQR-NH2
modifications: not fully specified (residues 1, 14)
Regarding B15, the “Human GIPR cAMP, HEK293T EC50” value in experiment [1] is 0.0004 nM.

B16: Compound 14 (peptide)
peptide: [NMeY][Aib]EGTFISDYSIALDR[Aib]AQ[Aib]K([AEEA-AEEA-γGlu-γGlu-C15 diacid])FVNWLLAQR-NH2
modifications: not fully specified (N-terminus); also: C-term NH2 in mods, C_TER column prints OH
Take B16: the “Human GIPR cAMP, HEK293T EC50” value in experiment [1] was 0.0004 nM.

B17: Compound 86 (peptide)
peptide: [NMeY][Aib]EGTFISDYSIALDR[Aib]AQ[Aib]K([AEEA-γGlu-γGlu-C15 diacid])FVNWLLAQR-NH2
modifications: N-terminus assumed
SMILES: CC[C@H](C)[C@H](NC(=O)[C@H](CO)NC(=O)[C@H](Cc1ccc(O)cc1)NC(=O)[C@H](CC(=O)O)NC(=O)[C@H](CO)NC(=O)[C@@H](NC(=O)[C@H](Cc1ccccc1)NC(=O)[C@@H](NC(=O)CNC(=O)[C@H](CCC(=O)O)NC(=O)C(C)(C)NC(=O)[C@H](Cc1ccc(O)cc1)NC)[C@@H](C)O)[C@@H](C)CC)C(=O)N[C@@H](C)C(=O)N[C@@H](CC(C)C)C(=O)N[C@@H](CC(=O)O)C(=O)N[C@@H](CCCNC(=N)N)C(=O)NC(C)(C)C(=O)N[C@@H](C)C(=O)N[C@@H](CCC(N)=O)C(=O)NC(C)(C)C(=O)N[C@@H](CCCCNC(=O)COCCOCCNC(=O)CC[C@H](NC(=O)CC[C@H](NC(=O)CCCCCCCCCCCCCC(=O)O)C(=O)O)C(=O)O)C(=O)N[C@@H](Cc1ccccc1)C(=O)N[C@H](C(=O)N[C@@H](CC(N)=O)C(=O)N[C@@H](Cc1c[nH]c2ccccc12)C(=O)N[C@@H](CC(C)C)C(=O)N[C@@H](CC(C)C)C(=O)N[C@@H](C)C(=O)N[C@@H](CCC(N)=O)C(=O)N[C@@H](CCCNC(=N)N)C(N)=O)C(C)C
In the case of B17, the “Human GIPR cAMP, HEK293T EC50” value in experiment [1] was 0.0014 nM.

B18: Compound 20 (peptide)
peptide: Me-Y[Aib]EGTFISDYSI[Aib]LDRKAQ[Aib]NFVNWLLAQRPSSGAPPPS-NH2
modifications: not fully specified (residues 1, 17)
For the molecule B18, in experiment [1], the “Human GIPR cAMP, HEK293T EC50” value is 0.0003 nM.

B19: Compound 17 (peptide)
peptide: Me-Y[Aib]EGTFISDYSIALDR[Aib]K([AEEA-AEEA-γGlu-γGlu-C15 diacid])Q[Aib]NFVNWLLAQSPSSGAPPPS-NH2
For B19, the “Human GIPR cAMP, HEK293T EC50” value in experiment [1] was determined as 0.0004 nM.

B20: Compound 111 (peptide)
peptide: [NMeY][Aib]EGTFISDYSI[Aib]LDR[Aib]K(2OEGgEgE‑C15DA)Q[Aib]NFVNWLLAQSPSSGAPPPS-NH2
modifications: N-terminus assumed
SMILES: CC[C@H](C)[C@H](NC(=O)[C@H](Cc1ccccc1)NC(=O)[C@@H](NC(=O)CNC(=O)[C@H](CCC(=O)O)NC(=O)C(C)(C)NC(=O)[C@H](Cc1ccc(O)cc1)NC)[C@@H](C)O)C(=O)N[C@@H](CO)C(=O)N[C@@H](CC(=O)O)C(=O)N[C@@H](Cc1ccc(O)cc1)C(=O)N[C@@H](CO)C(=O)N[C@H](C(=O)NC(C)(C)C(=O)N[C@@H](CC(C)C)C(=O)N[C@@H](CC(=O)O)C(=O)N[C@@H](CCCNC(=N)N)C(=O)NC(C)(C)C(=O)N[C@@H](CCCCNC(=O)COCCOCCNC(=O)COCCOCCNC(=O)CC[C@H](NC(=O)CC[C@H](NC(=O)CCCCCCCCCCCCCC(=O)O)C(=O)O)C(=O)O)C(=O)N[C@@H](CCC(N)=O)C(=O)NC(C)(C)C(=O)N[C@@H](CC(N)=O)C(=O)N[C@@H](Cc1ccccc1)C(=O)N[C@H](C(=O)N[C@@H](CC(N)=O)C(=O)N[C@@H](Cc1c[nH]c2ccccc12)C(=O)N[C@@H](CC(C)C)C(=O)N[C@@H](CC(C)C)C(=O)N[C@@H](C)C(=O)N[C@@H](CCC(N)=O)C(=O)N[C@@H](CO)C(=O)N1CCC[C@H]1C(=O)N[C@@H](CO)C(=O)N[C@@H](CO)C(=O)NCC(=O)N[C@@H](C)C(=O)N1CCC[C@H]1C(=O)N1CCC[C@H]1C(=O)N1CCC[C@H]1C(=O)N[C@@H](CO)C(N)=O)C(C)C)[C@@H](C)CC
Turning to B20, the “Human GIPR cAMP, HEK293T EC50” value in experiment [1] was determined as 0.0004 nM.

B21: Compound 49 (peptide)
peptide: Y[Aib]EGTFISDYSIAK([G2E3-C15 diacid])DR[Aib]AQ[Aib]NFVNWLLAQRPSSGAPPPS-OH
modifications: not fully specified (residue 1); also: Me-Tyr methyl position not given here
Consider B21, for which the “Human GIPR cAMP, HEK293T EC50” value in experiment [1] came out at 0.0002 nM.

B22: Compound 54 (peptide)
peptide: [NMeY][Aib]EGTFISDYSIALDRKAQ[Aib]NFVNWLLAQSPSSGAPPPS-OH
modifications: not fully specified (residue 17)
Regarding B22, the “Human GIPR cAMP, HEK293T EC50” value in experiment [1] was 0.0001 nM.
